{
  "source": "patent US20200207830A1",
  "about": "“TREM2 MUTANTS RESISTANT TO SHEDDASE CLEAVAGE” (NOVARTIS AG, priority 2017, published 2020)",
  "key": {"ADAM17": {"target": "ADAM17 (Homo sapiens, UniProt P78536)", "sequence (P78536 215-824)": "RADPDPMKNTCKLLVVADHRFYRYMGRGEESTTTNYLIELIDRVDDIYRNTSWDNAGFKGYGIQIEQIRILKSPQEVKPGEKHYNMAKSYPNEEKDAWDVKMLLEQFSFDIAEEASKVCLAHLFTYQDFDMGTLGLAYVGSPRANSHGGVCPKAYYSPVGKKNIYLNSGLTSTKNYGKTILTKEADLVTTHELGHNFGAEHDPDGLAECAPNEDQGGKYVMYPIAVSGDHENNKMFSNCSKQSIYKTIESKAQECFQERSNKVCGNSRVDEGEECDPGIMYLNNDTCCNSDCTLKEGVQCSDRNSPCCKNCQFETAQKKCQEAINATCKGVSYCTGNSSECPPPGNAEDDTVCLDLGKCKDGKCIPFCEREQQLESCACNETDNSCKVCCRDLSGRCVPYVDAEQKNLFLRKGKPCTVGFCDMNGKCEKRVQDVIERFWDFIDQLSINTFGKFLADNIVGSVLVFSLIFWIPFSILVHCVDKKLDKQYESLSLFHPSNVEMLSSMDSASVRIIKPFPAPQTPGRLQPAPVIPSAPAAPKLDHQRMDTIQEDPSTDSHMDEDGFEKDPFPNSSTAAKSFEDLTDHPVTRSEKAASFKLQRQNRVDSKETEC", "assay": "In vitro cleavage of TREM2 stalk region peptides by ADAM17 (HPLC)", "type": "biochemical", "conditions": "neutral buffer, up to 48 hours, HPLC of parent peptide", "from_the_text": "FIGS. 5A-5E show ADAM17 cleaves TREM2 stalk region peptides in vitro at H157-S158. […] All peptides were obtained with an N-terminal 7-methoxycoumarin (Mca) fluorescent tag […]. Underlined amino acids indicates main sheddase cleavage site. AA112-171: SEQ ID NO: 24; Peptide 1: SEQ ID NO: 25; Peptide 2: SEQ ID NO: 26; Peptide 3: SEQ ID NO: 27; Peptide la: SEQ ID NO: 28; Peptide 2a: SEQ ID NO: 29; Peptide 4: SEQ ID NO: 30; Peptide 5: SEQ ID NO: 31; Peptide 6: SEQ ID NO: 32. […] FIG. 5C discloses SEQ ID NOS 83, 51 and 84, respectively, in order of appearance.\n(§1) In order to identify the cleavage site of ADAM10/ADAM17 within the stalk region of TREM2, in vitro cleavage patterns of stalk region-derived peptides were investigated and confirmed the cleavage site by determination of the C-terminus of shed soluble TREM2 from cell culture supernatants. A series of peptides covering the stalk region were designed for in vitro investigation of ADAM10/ADAM17 cleavage (FIG. 5A). All peptides were obtained with an N-terminal 7-methoxycoumarin (Mca) fluorescent tag. Peptides 1-3, 1a and 2a were incubated with ADAM17 in neutral buffer for up to 48 hours, and reaction was followed by HPLC analysis of aliquots withdrawn at different time points.\n(§2) HPLC-MS analysis of the reaction mixture of peptide3/ADAM17 identified one major product, SISRSLLEGEIPFP-NH2(SEQ ID NO: 51), together with 2 minor cleavage products (FIGS. 5B-5C). […] At these time points there was essentially no substrate left. Therefore, it can be concluded that the minor cleavage products originate from secondary ADAM17 cleavage of the main product."}, "ADAM10": {"target": "T1, ADAM10 (Homo sapiens, UniProt O14672)", "T1 sequence (O14672 214-748)": "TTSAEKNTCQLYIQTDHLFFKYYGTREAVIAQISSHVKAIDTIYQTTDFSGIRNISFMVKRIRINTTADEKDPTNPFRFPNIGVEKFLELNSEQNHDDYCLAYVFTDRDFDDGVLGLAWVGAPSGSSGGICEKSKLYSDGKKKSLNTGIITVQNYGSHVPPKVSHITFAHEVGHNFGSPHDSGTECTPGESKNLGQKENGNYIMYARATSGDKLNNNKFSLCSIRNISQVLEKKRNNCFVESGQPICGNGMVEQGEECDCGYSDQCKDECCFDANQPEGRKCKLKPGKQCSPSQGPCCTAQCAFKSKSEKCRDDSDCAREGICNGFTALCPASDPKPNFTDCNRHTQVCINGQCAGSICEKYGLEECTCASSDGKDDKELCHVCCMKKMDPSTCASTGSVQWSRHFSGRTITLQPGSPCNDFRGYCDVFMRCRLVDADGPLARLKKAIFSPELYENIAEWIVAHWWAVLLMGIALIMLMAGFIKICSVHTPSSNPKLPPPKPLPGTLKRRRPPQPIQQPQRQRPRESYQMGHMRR", "assay": "In vitro cleavage of TREM2 stalk region peptides by ADAM10", "type": "biochemical", "conditions": "data not shown", "from_the_text": "as §1, §2\nRecent literature gave insight into ADAM10 and ADAM17 preferences for the cleavage of peptides and proteins (Caescu et al., Biochem J 424, 79-88, 2009; Tucher et al., J Proteome Res 13, 2205-2214, 2014). […] After searching for the least preferred amino acids in substrates of ADAM10 and 17, isoleucine was identified as never occurring in P1 of ADAM substrates, and a very low preference for aspartate or proline in P1′ and in P2′. […] In these peptides the H-SI cleavage site was replaced with IPP, IPD, and IDP, respectively."}, "HEK293-FT cells": {"system": "HEK293-FT cells", "assay": "FACS analysis of cell surface expression of TREM2 WT and mutants in HEK293-FT cells with or without PMA", "type": "cell-based", "conditions": "co-transfected with hDAP12, 48 h, 30 min 50 ng/ml PMA, ratio of 1 = complete inhibition of shedding, FIG. 4B", "from_the_text": "FIGS. 4A-4D show the amino acid stretch in the membrane proximal part of the TREM2 stalk region are important for shedding. […] Amino acid numbering according to iProt Q9NZC2. TM: transmembrane region. Gaps indicate deleted amino acids within the respective mutant. Exchanged amino acids in bold. Underlined amino acids indicates main sheddase cleavage site for generation of the C-terminus of TREM2 ectodomain. […] FIG. 4B is a bar graph showing FACS analysis of TREM2 WT and mutants transiently expressed in HEK293-FT cells. Cells were treated 48 hours after transfection with 50 ng/ml PMA or 0.05% DMSO. Cells were detached, labelled with AF1828 antiserum and analyzed by flow cytometry. Data are plotted as the ratio of untreated over PMA treatment for each mutant as mean±S.E. (n=3). Statistical differences to WT were calculated by Anova with Dunnett's multiple comparison test. *P<0.01. TREM2-double mutant was stably expressed in BWZ-lacZ-mDAP12 cells. Cells were seeded on an activating monoclonal antibody or isotype control and reporter gene activity assessed after 16 h. Data are plotted as the ratio of RGA for activating/control Ab as mean±S.E. (n=3). FIG. 4D is a bar graph showing replacement of the three amino acids at the sheddase cleavage site strongly increases TREM2 cell surface expression. FACS analysis of TREM2 WT and mutants transiently expressed in HEK293-FT cells. Cells were treated 48 h after transfection with 50 ng/ml PMA or 0.05% DMSO. Cells were detached, labelled with AF1828 antiserum and analyzed by flow cytometry. Data are plotted as the ratio of untreated over PMA treatment for each mutant as mean±S.E. (n=3). Statistical differences were calculated by Anova with Dunnett's multiple comparison test. *P<0.01.\nHuman TREM2 mutants were generated using the QuikChange Site-directed Mutagenesis Kit (Stratagene) and confirmed by sequence analysis. Transfections of complementary DNA (cDNA) constructs were carried out in a 1:1 ratio of hDAP12 and TREM2 in HEK-FT cells using Lipofectamine LTX reagent (Thermofischer) according to the manufacturer's recommendations. 48 h after transfection cells were treated for 30 min with 50 ng/ml PMA or 0.05% DMSO and detached with a cell detachment solution Accutase (Sigma) and stained with goat anti human TREM2 antibody AF1828 (R&D Systems) or isotype control followed by incubation with the secondary Alexa Fluor 488 conjugated antibody (Molecular Probes). Acquisition was performed using a BD FACSCanto II (BD biosciences).\nWild-type (WT) TREM2 or TREM2 mutants were transfected together with hDAP12 into HEK-FT cells. 48 h later cells were treated for 30 min with PMA to activate ADAMs at cell surface (see Sommer, Nature Communications 7, 11523, 2016). TREM2 cell surface expression was assessed by FACS, and results are presented as expression ratio of untreated over PMA treatment (FIG. 4B). The evaluation of each construct in the presence and absence of PMA treatment overcomes the possibility that some constructs might display different binding properties for the antiserum and allows direct comparison of changes in TREM2 cell surface expression after activation of sheddases. A ratio of 1 indicates complete inhibition of shedding. […] Next four shorter deletion mutants were generated encompassing this area, each 6 amino acids long (TRUNC1, T2del3-8, T2del6-11 and T2del11-16)."}},
  "note": "No end group written: not given here.",
  "data": [
    {"molecule": "1a: TREM2 stalk region derived synthetic peptide with 7-methoxycoumarin (Mca) tag; SEQ ID NO: 28 (VLVEVLADPLDHRD; also: 7-methoxycoumarin (Mca) tag, position not given here) [Peptide 1a]", "values": [
      {"measurement": "Cleavage by ADAM17", "setting": "ADAM17", "value": "only very little or no reduction of the parent peptide"}
    ]},
    {"molecule": "Peptide 5: TREM2 stalk peptide, H-SI cleavage site replaced with IPD; SEQ ID NO: 31 (DAHVEIPDSRSLLEGEIPFP)", "values": [
      {"measurement": "Cleavage by ADAM10", "setting": "ADAM10", "value": "slowly cleaved"},
      {"measurement": "Cleavage by ADAM17", "setting": "ADAM17", "value": "resistant to in vitro cleavage"}
    ]},
    {"molecule": "T2del6-11: human TREM2 6 amino acid deletion mutant of the stalk region; SEQ ID NO: 16 (LWFPGESESFEDAHVEHSISRSLFPPTSILLLLAC)", "values": [
      {"measurement": "PMA induced TREM2 shedding (TREM2 cell surface expression ratio of untreated over PMA treatment)", "setting": "HEK293-FT cells", "value": "no or very little effect on shedding"}
    ]},
    {"molecule": "Peptide 2: TREM2 stalk region derived synthetic peptide with 7-methoxycoumarin (Mca) tag; SEQ ID NO: 26 (PLDHRDAGDLWFPGESESFE; also: 7-methoxycoumarin (Mca) tag, position not given here)", "values": [
      {"measurement": "Cleavage by ADAM17", "setting": "ADAM17", "value": "only very little or no reduction of the parent peptide"}
    ]},
    {"molecule": "T2del3-8: human TREM2 6 amino acid deletion mutant of the stalk region; SEQ ID NO: 15 (LWFPGESESFEDAHVEHSISRSLLEGTSILLLLAC)", "values": [
      {"measurement": "PMA induced TREM2 shedding (TREM2 cell surface expression ratio of untreated over PMA treatment)", "setting": "HEK293-FT cells", "value": "no or very little effect on shedding"}
    ]},
    {"molecule": "Peptide 1: TREM2 stalk region derived synthetic peptide with 7-methoxycoumarin (Mca) tag; SEQ ID NO: 25 (SLHGSEADTLRKVLVEVLAD; also: 7-methoxycoumarin (Mca) tag, position not given here)", "values": [
      {"measurement": "Cleavage by ADAM17", "setting": "ADAM17", "value": "only very little or no reduction of the parent peptide"}
    ]},
    {"molecule": "Peptide 2a: TREM2 stalk region derived synthetic peptide with 7-methoxycoumarin (Mca) tag; SEQ ID NO: 29 (ESESFEDAHVEH; also: 7-methoxycoumarin (Mca) tag, position not given here)", "values": [
      {"measurement": "Cleavage by ADAM17", "setting": "ADAM17", "value": "only very little or no reduction of the parent peptide"}
    ]},
    {"molecule": "TRUNC1: human TREM2 6 amino acid deletion mutant of the stalk region; SEQ ID NO: 14 (LWFPGESESFEDAHVEHSISRSLLEGEIILLLLAC)", "values": [
      {"measurement": "PMA induced TREM2 shedding (TREM2 cell surface expression ratio of untreated over PMA treatment)", "setting": "HEK293-FT cells", "value": "no or very little effect on shedding"}
    ]},
    {"molecule": "T2del11-16: human TREM2 6 amino acid deletion mutant of the stalk region; SEQ ID NO: 45 (protein) MEPLRLLILLFVTELSGAHNTTVFQGVAGQSLQVSCPYDSMKHWGRRKAWCRQLGEKGPCQRVVSTHNLWLLSFLRRWNGSTAITDDTLGGTLTITLRNLQPHDAGLYQCQSLHGSEADTLRKVLVEVLADPLDHRDAGDLWFPGESESFEDAHVEHSEGEIPFPPTSILLLLACIFLIKILAASALWAAAWHGQKPGTHPPSELDCGHDPGYQLQTLPGLRDT", "values": [
      {"measurement": "PMA induced TREM2 shedding (TREM2 cell surface expression ratio of untreated over PMA treatment)", "setting": "HEK293-FT cells", "value": "reduced PMA induced shedding"}
    ]},
    {"molecule": "TRUNCIII-159-174: human TREM2 mutant, deletion of the 16 amino acids 159-174 proximal to the transmembrane domain; SEQ ID NO: 44 (protein) MEPLRLLILLFVTELSGAHNTTVFQGVAGQSLQVSCPYDSMKHWGRRKAWCRQLGEKGPCQRVVSTHNLWLLSFLRRWNGSTAITDDTLGGTLTITLRNLQPHDAGLYQCQSLHGSEADTLRKVLVEVLADPLDHRDAGDLWFPGESESFEDAHVEHSILLLLACIFLIKILAASALWAAAWHGQKPGTHPPSELDCGHDPGYQLQTLPGLRDT", "values": [
      {"measurement": "PMA induced TREM2 shedding (TREM2 cell surface expression ratio of untreated over PMA treatment)", "setting": "HEK293-FT cells", "value": "maximally reduces TREM2 shedding"}
    ]},
    {"molecule": "T2-YGG: human TREM2 mutant, amino acids 156-164 replaced with larger hydrophobic residues; SEQ ID NO: 46 (protein) MEPLRLLILLFVTELSGAHNTTVFQGVAGQSLQVSCPYDSMKHWGRRKAWCRQLGEKGPCQRVVSTHNLWLLSFLRRWNGSTAITDDTLGGTLTITLRNLQPHDAGLYQCQSLHGSEADTLRKVLVEVLADPLDHRDAGDLWFPGESESFEDAHVYGGWGGWGPEGEIPFPPTSILLLLACIFLIKILAASALWAAAWHGQKPGTHPPSELDCGHDPGYQLQTLPGLRDT", "values": [
      {"measurement": "PMA induced TREM2 shedding (TREM2 cell surface expression ratio of untreated over PMA treatment)", "setting": "HEK293-FT cells", "value": "trend for reduction of TREM2 shedding"}
    ]},
    {"molecule": "T2-WFR: human TREM2 mutant, amino acids 169-172 replaced with larger hydrophobic residues; SEQ ID NO: 47 (protein) MEPLRLLILLFVTELSGAHNTTVFQGVAGQSLQVSCPYDSMKHWGRRKAWCRQLGEKGPCQRVVSTHNLWLLSFLRRWNGSTAITDDTLGGTLTITLRNLQPHDAGLYQCQSLHGSEADTLRKVLVEVLADPLDHRDAGDLWFPGESESFEDAHVEHSISRSLLEGEIWFRWTSILLLLACIFLIKILAASALWAAAWHGQKPGTHPPSELDCGHDPGYQLQTLPGLRDT", "values": [
      {"measurement": "PMA induced TREM2 shedding (TREM2 cell surface expression ratio of untreated over PMA treatment)", "setting": "HEK293-FT cells", "value": "more efficacious"}
    ]}
  ]
}
